In PMC8115037, “Paracoccus denitrificans: a genetically tractable model system for studying respiratory complex I” (Scientific Reports, 2021):

B1: complex I (NADH:ubiquinone oxidoreductase), Pd-CI (Paracoccus denitrificans PD1222) (protein)
chain 1: MDGDIRKNSYDDGSMDALTGEQSIRNFNINFGPQHPAAHGVLRMVLELDGEIVERADPHIGLLHRGTEKLMESRTYLQNLPYLDRLDYVAPMNQEHAWCLAIERLTGTVIPRRASLIRVLYSEIGRILNHLMGVTTGAMDVGALTPPLWGFEAREELMIFYERACGARLHAAYFRPGGVHQDLPPDLLDDIEEWCERFPKLVDDLDTLLTENRIFKQRLVDIGIVTEADALDWGYTGVMVRGSGLAWDLRRSQPYECYDEFDFQIPVGRNGDCYDRYLCRMAEMRESCKIMQQAVQKLRAEPAGDVLARGKLTPPRRAEMKRDMESLIHHFKLYTEGFKVPAGEVYAAVEAPKGEFGVYLVADGTNKPWRAKLRAPGFAHLQSIDWMSRGHMLADVPAIIATLDIVFGEVDR
chain 2: MMTGLNTAGADRDLATAELNRELQDKGFLLTTTEDIINWARNGSLHWMTFGLACCAVEMMQTSMPRYDLERFGTAPRASPRQSDLMIVAGTLTNKMAPALRKVYDQMPEPRYVISMGSCANGGGYYHYSYSVVRGCDRIVPVDIYVPGCPPTAEALLYGILQLQRRIRRTGTLVR
chain 3: MAEFWASPYGFALSMLLQGLAVIAFVMGSLIFMVYGDRKIWAAVQMRRGPNVVGPWGLLQTFADALKYIVKEIVIPAGADKFVYFLAPFLSMMLALFAFVVIPFDEGWVMANINVGILFIFAASSLEVYGVIMGGWASNSKYPFLASLRSAAQMISYEVSLGLIIIGIIISTGSMNLTAIVEAQRGDYGLLNWYWLPHLPMVVLFFVSALAECNRPPFDLVEAESELVAGFMTEYSSTPYLLFMAGEYIAMYLMCALLSLLFFGGWLSPVPFIADGWWWMVIKMWFWFYMFAMVKAIVPRYRYDQLMRIGWKVFLPLSLGWVVLVAILARYEILGGFWARFAVGG
chain 4: MLNDQDRIFTNLYGMGDRSLAGAKKRGHWDGTAAIIQRGRDKIIDEMKASGLRGRGGAGFPTGMKWSFMPKESDGRPSYLVINADESEPATCKDREIMRHDPHTLIEGALIASFAMGAHAAYIYIRGEFIREREALQAAIDECYDAGLLGRNAAGSGWDFDLYLHHGAGAYICGEETALLESLEGKKGMPRMKPPFPAGAGLYGCPTTVNNVESIAVVPTILRRGAEWFASFGRPNNAGVKLFGLTGHVNTPCVVEEAMSIPMRELIEKHGGGIRGGWKNLKAVIPGGASCPVLTAEQCENAIMDYDGMRDVRSSFGTACMIVMDQSTDVVKAIWRLSKFFKHESCGQCTPCREGTGWMMRVMERLVRGDAEVEEIDMLFDVTKQVEGHTICALGDAAAWPIQGLIRNFREEIEDRIKAKRTGRMGAMAAE
notes: intact purified complex I, His6-tag on Nqo5; with multisubunit complex (14 core Nqo subunits plus PdNUMM, PdNUYM, PdN7BM)
B2: complex I (NADH:ubiquinone oxidoreductase), Pd-CI (Paracoccus denitrificans PD1222) (protein)
chain 1: B1 chain 1
chain 2: B1 chain 2
chain 3: B1 chain 3
notes: purified complex I reconstituted in proteoliposomes, His6-tag on Nqo5; with multisubunit complex (14 core Nqo subunits plus PdNUMM, PdNUYM, PdN7BM)

Assays:
Type in all cases: biochemical, Paracoccus denitrificans
Settings in all cases: FMN, FeS clusters
[1] = substrate: COC1=C(OC)C(=O)C(CC=C(C)C)=C(C)C1=O; test: KM, quinone reduction by purified soluble enzyme
[2] = substrate: CCCCCCCCCCC1=C(C)C(=O)C(OC)=C(OC)C1=O; test: KM, NADH:DQ oxidoreduction by purified soluble enzyme
purified protein = substrate: COC1=C(OC)C(=O)C(C/C=C(\C)CC/C=C(\C)CC/C=C(\C)CC/C=C(\C)CC/C=C(\C)CC/C=C(\C)CC/C=C(\C)CC/C=C(\C)CC/C=C(\C)CCC=C(C)C)=C(C)C1=O; test: purified protein

Protein | Km [1] | Km [2] | Km (purified protein)
B1 | 124 ± 8 µM | 169 ± 15 µM | 
B2 |  |  | 1100 ± 200 µM
